{"source": "patent WO2016092096A1", "about": "(dated 2016)", "binders": {"B1": {"name": "anti-NDM antibody 1121 (antibody, V domains shown)", "VH": "QVQLQQSEADLVRPGSSVKISCKASGYAFSNSWINWVKQRPGQGLEWIGQINPGDGNTKYNGKFKGKVILTADKSSSTAYMQLSSLTSEDSAVYFCERETPLWSFVYWGRGTLVTVSA", "VL": "not shown", "notes": "Used as detector antibody, labelled with biotin"}, "B2": {"name": "anti-OXA-48 antibody 1461 (antibody, V domains shown)", "VH": "QVQLKQSGAELGRPGSSVKLSCKTSGYKFKSYGINWVKQRPGQGLEWIGYIYPGSGYIEYNEKFQGEATLTSDTSSSTAYMQLRSLTSEDSAIYFCGRLGDGYFFYAMDYWGQGTSVTVSS", "VL": "QIVLTQSPTTMAASPGEKITITCSASSSISSNYMHWYQQKPGFSPKLLIYRTSNLGSGVPVRFSGSGSGTSYSLTIGTMEAEDVATYYCQQGSSIPFTFGSGTKLEIKR", "notes": "Used as capture antibody spotted on the array"}, "B3": {"name": "anti-VIM antibody 1071 (antibody, V domains shown)", "VH": "QVKLQQSGPELARPGASVKLSCKASGYTFRSYGITWVKQRTGQGLEWIGEIYPESNISYYNEKFKGTATLTTDKSSSTAYMQLSSLTSEDSAVYFCARRDYDGSYIYWGQGTTLTVSS", "VL": "B2 VL with K18N, Y33F, M34L, W36G, G56A, V61T, S93D, I95L, F97R, S101G", "notes": "It was selected from a phage display Fab library; Used as capture antibody"}, "B4": {"name": "anti-NDM antibody 1041 (antibody, V domains shown)", "VH": "QVQLKQSGAELARPGASVKLSCKASGYTFRGYGISWVKQRTGQGLEWIGEIYPGSGNTHYNEKFKGKATLTADKSSSTAYMQLSSLTTEDSAVYFCADLGSWFANWGQGTLVTVSA", "VL": "DIVLTQSPATLSVTPGDSVSLSCRASQSIYNNLHWYQQKSHESPRLLIKYASQSISGIPSRFSGSGSGTDFTLSINSVETEDFGMYFCQQSNSWPYTFGAGTKLELKR", "notes": "as for B3"}, "B5": {"name": "anti-OXA-48 antibody 1281 (antibody, V domains shown)", "VH": "DVQLQQSGPEMVKPGASVKISCKAFGYTFSDYYMYWVKQSHGKSLEWIGRVNGNNGDTRYNQKFEGKATLTVDKSSSTAYMELNSLTSEDSAVYYCARGDYLAYWGQGTTLTVSS", "VL": "NIVLTQSPASLAVSLGQRASISCRAIKSVDSYGTSFMHWYQQKPGQPPKLLIYRASNLESGIPARFSGSGSRTDFTLTINPVEADDVATYYCHQSNEAPYTFGGGTKLEIKR", "notes": "It was selected from a phage display Fab library"}, "B6": {"name": "antibody 1721 (SEQ ID Nos: 19 and 23), detector antibody for VIM (antibody, V domains shown)", "VH": "QVQLQQPGSVLVRPGTSVKLSCKASGYTFTSYWMHWVKQRPGQGLEWIGEIYPNSGKTNYNEKFKGKATLTVDTSSSTAYVALNSLTSEDSAVYYCAKRYSLYDFTLDYWGQGTSVTVSS", "VL": "DIKMTQSPKSMSMSVGERVTLTCKASENVGTFVSWYQQKLDQSPKLLIYGASKRYTGVPDRFTGSGSATDFTLAISSVQAEDLADYHCGQSFSYPLTFGAGTKLELKR", "notes": "The detector is labelled with biotin"}}, "key": {"[1]": {"target": "T1, NDM carbapenemase (Klebsiella pneumoniae, UniProt C7C422 29-270)", "T1 construct": "The antigen in the assays came from NDM-positive strains or from supernatants of expressing cells", "T1 sequence (C7C422 29-270 limits assumed)": "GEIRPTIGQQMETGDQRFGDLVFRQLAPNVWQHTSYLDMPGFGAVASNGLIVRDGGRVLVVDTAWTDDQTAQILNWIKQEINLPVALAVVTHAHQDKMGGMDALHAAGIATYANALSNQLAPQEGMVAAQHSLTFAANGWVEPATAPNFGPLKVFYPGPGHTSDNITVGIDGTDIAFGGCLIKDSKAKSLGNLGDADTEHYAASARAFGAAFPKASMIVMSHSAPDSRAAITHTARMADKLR", "assay": "sandwich on ArrayTube array as in Example 2; cell supernatant denatured 10 min at 99°C"}, "[2]": {"target": "T2, OXA-48 carbapenemase (Klebsiella pneumoniae, UniProt Q6XEC0 23-265)", "T2 sequence (Q6XEC0 23-265 limits assumed)": "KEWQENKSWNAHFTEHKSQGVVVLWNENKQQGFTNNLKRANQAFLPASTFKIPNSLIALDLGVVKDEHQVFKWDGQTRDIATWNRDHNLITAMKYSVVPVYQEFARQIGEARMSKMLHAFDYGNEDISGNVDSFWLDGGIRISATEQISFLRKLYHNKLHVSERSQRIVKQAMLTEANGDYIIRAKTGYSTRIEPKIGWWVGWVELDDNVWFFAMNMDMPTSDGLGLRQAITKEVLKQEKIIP", "assay": "sandwich on ArrayTube array, 1461 capture and biotin-labelled 1281 detector, cultivated cells of clinical strains"}, "[3]": {"target": "T3, VIM carbapenemase (Pseudomonas aeruginosa (strain ATCC …, UniProt A0A0F7KYQ8 21-266))", "T3 construct": "The antigen in the assays came from VIM-positive strains or from supernatants of expressing cells", "assay": "sandwich on ArrayTube array as in Example 2; cell supernatant denatured 10 min at 99°C"}, "[4]": {"target": "T2, OXA-48 carbapenemase", "assay": "sandwich on ArrayTube array as in Example 2; cell supernatant denatured 10 min at 99°C"}}, "note": "Residue numbers refer to the chain shown, from its start."}
{"binder": "B1", "values": [{"measurement": "binding result", "setting": "[1]", "result": "binds"}]}
{"binder": "B2", "values": [{"measurement": "binding result", "setting": "[2]", "result": "binds"}]}
{"binder": "B3", "values": [{"measurement": "binding result", "setting": "[3]", "result": "binds"}]}
{"binder": "B4", "values": [{"measurement": "binding result", "setting": "[1]", "result": "binds"}]}
{"binder": "B5", "values": [{"measurement": "binding result", "setting": "[4]", "result": "binds"}]}
{"binder": "B6", "values": [{"measurement": "binding result", "setting": "[3]", "result": "binds"}]}
